Target: Gq-coupled receptors
Assay: cell-based or functional assay

decrease in IP1 accumulation: 20%
B1: GαqG66D, P21279 1-359 (protein)
chain: MTLESIMACCLSEEAKEARRINDEIERHVRRDKRDARRELKLLLLGTGESGKSTFIKQMRIIHGSDYSDEDKRGFTKLVYQNIFTAMQAMIRAMDTLKIPYKYEHNKAHAQLVREVDVEKVSAFENPYVDAIKSLWNDPGIQECYDRRREYQLSDSTKYYLNDLDRVADPSYLPTQQDVLRVRVPTTGIIEYPFDLQSVIFRMVDVGGQRSERRKWIHCFENVTSIMFLVALSEYDQVLVESDNENRMEESKALFRTIITYPWFQNSSVILFLNKKDLLEEKIMYSHLVDYFPEYDGPQRDAQAAREFILKMFVDLNPDSDKIIYSHFTCATDTENIRFVFAAVKDTILQLNLKEYNLV
modifications: not fully specified

Reference: patent publication US20050042720A1, “Novel promiscuous G alpha protein mutants and their use” (7TM Pharma A/S, priority 2003, published 2005)
